Results from article doi:10.1101/2022.06.15.496315.
Where two headings read alike, the source gives them in different places.

Tests used:
[1] = target: ZIKV envelope protein (E) in infected Vero cells (Zika virus (MR766 strain)); assay: proximity ligation
[2] = target: ZIKV envelope protein (E) in infected Vero cells (Zika virus (MR766 strain)); assay: proximity ligation; remark: listed apart in the source

Substance: naturally occurring dynein (cytoplasmic dynein-1) of Vero cells, detected by its heavy chain (natural protein)
- PLA dots per cell (dots per cell) [1]: > 6
- PLA dots per cell (dots per cell) [2]: < 1
